Measured values reported in a protein production outcome set (Wang et al. 2014).

Experiment: label from the status in PepcDB records

Sequence | protein production
MRILSIIRIIGILVMCFSGTMLVPAFVALIYGDGGGKAFMQAFMLSLIAGTLLWWPCHHHKQELRSRDGFLIVVAFWLVLGSLATLPLLLFDSPHLTIASAVFEAFSGLTTTGATVMTGLDNLPKSILFYRQFLQWLGGMGIIVLAVAIIPLLGIGGTQLYRAESSGPLKDQKSLPKISEVAKALWIIYASLTVLCAIAYWLSGMNLFDAIGHSFSTISNGGFSTHDASIGYFNQASIYWVTTIFMLIGGVNFSLHISAFLALGKRNIWRNYWKDPEFRFFLTMQIIFIGIVSLSLYGYGLVSDINEAVTKGALQLTSMSMTAGYTIFDIDNLPPFIGLLLVISAVIGGCGGSTTGGLKAIRTLILWKQIDRELHSLIHPNLVQPIRIGKNRLAPRMIESIWAFFIIFILVYWGCVFAVILCGMNTFDAMGAVFATLTNAGPGLGFIHESFIGVPESAKLVFSFAMICGRLEMFSLIVLFIPSYWKK | failed
AEDNLGPLPENWEMAYTENGEVYFIDHNTKTTSWLDPRCLNKQQ | not failed
MTAQKMSAQEIIAFIGNAEKKTNVKVTFEGALAAALPENVVKLGNVLFGDWKDIEPLLANLTENKDYVVEQDGRNSAVPLLDK | not failed
MTTLRTLMAVSLVLNLAACGFKLRGQVSELPFERVYITAPAGLTIGSDLERVISTHTRAKVVNKAEKSEAIIQIVHAIREKRILSLSESGRVREFELVYRVAARLLDAHNAELASLQEIRLTRILPFLDAQELAKAAEEEMLYKDMQKDAVQQILRQVSAVTSAGLEHHHHHH | not failed
MLTYQVKQGDTLNSIAADFRISTAALLQANPSLQAGLTAGQSIVIPGLPDPYTIPYHIAVSIGAKTLTLSLNNRVMKTYPIAVGKILTQTPTGEFYIINRQRNPGGPFGAYWLSLSKQHYGIHGTNNPASIGKAVSKGCIRMHNKDVIELASIVPNGTRVTINR | not failed
KIGYGKANPTTRLWVGGLGPNTSLAALAREFDRFGSIRTIDHVKGDSFAYIQYESLDAAQAACAKMRGFPLGGPDRRLRVDFAK | not failed
MFKKTFSMICCVIFLQGCSQEQEVKKEMTNMETALLAATEKNETNTVISLLKQGANINATDNQGRTPLMIATYKNDVKTAKALIKAGADVNIQDDMKNNPFLYAGAEGYLDILKLTINAGADPTITNRYGGTALIPASEHGYIDVIKELLTRTNIDVNHVNNLGWTALMETIVLSNGNETQQQVIRLLIEHGADVNIPDNDGVTPLEHARAHNFAEIEKILLEGNK | failed
MEVVRIPEFKEKTAPGAYYQQPAIDGSRPGRFYANLFDIKATPKYGMRTLAYHEGIPGHHFQVAVAMELEGQPLIRKMAPFTAYIEGWALYSERVAWELGFQQDPFDNIGRLQAELFRAVRLVVDTGIHHSRWTREQAIDYMKKNTGMSDRDVTAEIERYIVMPGQATAYKVGMMKILELREKAKQALGDKFDLRDFHDVVLKNGAVPLDILEKLVDRYIADKR | failed
MTPQSDTPKVTGLKLKRKSRQLEISFDNGQQFTLSCELLRVYSPSAEVHGHGNPVLVTHKKNVNINAITPVGNYAVKLVFDDGHDTGLYSWKVLYDLASNQVDLWENYLARLRAAKASREPLIDMAVKYHT | not failed
MRNRLPPAWAKHLKTQPSVKVAMPKATLPKAQPNASPPRSQADDMLLRQALELQQAKRLPEAEELCLRVLARTPNHPLAYYILGTLGIGYDNEKALRYFARAVAEEPQNPYYHLSLGETYLKVSEFTPAIRHIQQALDLKPDLVEALCALGDAYNEFDKGELALPLFEKALKIDRYHPLARLGLPYALASLGRMDEAAVLLKEAIDRRIALPTAYGALVQTRNFTEEPPELESILAELRDPDLGSEDASALHHAAGKVLNDLGRYKEAMVHYKKGNQAGGHKFDLENYRRWIDAMIETFTPELFASRAAYGNPSDAPVFVVGMPRSGTTLTEQICASHPNVHGAGELGKLRRVANGIGLANRSNTNFAESIATFTPDLTRALAGEHLAYLRERAPDALRIVDKMPHNFELIGLIGILFPNARIIHCRRDAIDNCISCFVLRFNEAHSYSADLQTLGLYYREYDRLMRHWNKVLPGRIFENRYEALIENQEQQSRRLIDYLGLPWDDACLRFFDREGSVNTYSRWQVRQPIYTSSIKRWRNYESEIQSLIESLGDLAET | failed
MSIELDATTYIHAKPTTAHSYILPKIFDVLGDHFDGSAENDVFDLGCGTGGAAAALTKAGYDVVGVDPSSDGIGKANIRHPGLALSVGSAYDDLSREYGSFSAVISLEVVEHVYDPKTFTSTMFDLVKPGGIAVISTPYHGYLKNLALAATGKMDDHFMPLKDHGHIKFWSKNTLRTLLLETGFANVRFEYVGRIPAFAKSMIAVADKPFSQSARHGAVRRSSPEVVSTACRQKKP | failed
MSKPLYVFDMDETLINADCAMIWNAFLVEKGIATQPNFIEEDQRLMALYAEGKMDMEDYLEFCMAPLADMPIAHVLMLVEECVEHHILPKQFEQSKTLIAQLDRDDIDMVIISASVTFLVEAVGRRLGIPVALGIDLVEKHGSYSAEIAGVPSYREGKVIRLKAWLDAQPESYSEVHFYTDSINDLPLCEYADYAYLVNPCPQLKARADKANWTLLRWN | failed
MTGPTTDADAAVPRRVLIAEDEALIRMDLAEMLREEGYEIVGEAGDGQEAVELAELHKPDLVIMDVKMPRRDGIDAASEIASKRIAPIVVLTAFSQRDLVERARDAGAMAYLVKPFSISDLIPAIELAVSRFREITALEGEVATLSERLETRKLVERAKGLLQTKHGMTEPDAFKWIQRAAMDRRTTMKRVAEVVLETLGTPKDT | not failed
PSFNLGYIGLNNRNEYLKNPKVRQAISMAINRRAVVDAFWSGLGRTDTSIVPPALGWATSSKVPADYKFDPAAAKKLLAEAGYPNGFTLDFWYMPITRSYFPQPKASAEAMAADLADVGIKVNLKTEDWAKYLDDLFAGRLSMFQIGLIGDYGDPDYFYGALYNPTSTNDIGWNAPAELDTLLQQARSGLTRQARAQAYARIHELTYNAGYRIPLVHSQ | failed
MRFPSLLALGLTLPLGAFAAGGDSTGGSTWTNPPKETQTTKECKGVKVWDDKKKRCVAPKNSGLDADTLYDAVRELAYAGRPADAQGVLAAMPDQSDDRVLTYWGFTHRKLGDLDRAAFYYQAAIAANPDNILARSYMGQGFVEAGKTDLAIAQWREITARGGEGSWAEVSLREAIRSGLTYSY | failed
MGDEALVVDPLRFIDVYEQVAQQEGVTITHIVDSHLHADHLSGGKALAERTGAAYYLMKSEGAVFDFEPLEQHETIDFENVHLEVLAVKTPGHTPGSVSFFVNGKWLFSGDTIFVGGLGRPDLGGKVAEWAEDLYHTVYEKVAAMADDVIVLPAHYANLDEEINAEGYVGDTLGRIRARNEMMQNKAKDEFIDLVIQGLEHHHHHH | failed
MLTRYLAIAAIALALTGLGGCSVNPVTGEKQLSLISENQELALGAEQYTPTQQTQGGRFYIDPELSIYVRDVGQKLARVSDRPDLPYEFVVLNNSVPNAWALPGGKIAINRGLLVELEDEAQLASVLGHEIVHAAARHSVQRMQQGMLISAGVAGLGFALSDNEWAGLIMGGAALGAQLALAQYSQGDELESDAYGIRYMKEAGYDPQAAVELQQLFLKLSEGRQSGWLDGLFATHPPSAKRVQENQELVQNIGSGGYRGRDVYQRRIAKLKELQPAYDAHDEAMKLASEGKFEAALDQVNKAIKLEPREAMLFALRGRIYRGMEQPEKAKADFDKAVSLYPEMFQYQLYSGLNELELNNLGKAKTHLEKANQVVPTSIAYLRLGDIARQQGQRSEAVAYYSTAAEAGGDVGAEAQRKLAELSN | failed
MDFSLTEEQELLLASIRELITSNFPEEYFRTCDQTGTYPKEFMQALAENGISMLGVPEEFGGIPADYVTQMLALMEISKCGAPAFLITNGQCIHSMRRFGSAEQLRKTAESTLATGDPAYALALTEPGAGSDNNSATTTWTRKNGKVYLNGQKTFITGAKEYPYMLVLARDTEPKDPKKAFTLWWVDSNKPGIKINPLHKIGWHMLSTCEVYLDNVEVDESDRVGEEGMGFLNVMYNFEMERLINAARSTGFAECAFEDAARYANQRIAFGKPIGHNQMIQEKLALMAIKIENMRNMVLKVAWQADREESLRTSAALAKLYCARTAMEVIDDAIQIMGGLGYTDEARVSRFWRDVRCERIGGGTDEIMIYVAGRQILKDYQNK | failed
MTAAENIQEQLYPAPIKTVEEGSPAARAGVRPGDVLLRVNGQPVTDVLAYRHQLERGVVTLEVARPHEAPRVMTGVAGTAQDHHRLMLPQPPSLDETLTFTVEWEDPGLDFEEVLFDGIKKCANKCDFCYVHQMPRGFRKSLYIMDDDYRLSFLYGSFVTLTNLTEGDINRILDENLSPLYVSVHTANQDLRQDMMKWWKLKVKDPQAVQIREMIERLESIDLYTQIVLVPERNDRENLDETVEYLSSRPNVISAAVVPIGLTAHRTNLPDVRTFTPEEAQDTLRRLNVWRRKFLAERGTRFIFPSDELYLLAGEPLPTEEEYEGFPMLENGVGMIRDFLTEALPPLPAALPEPRKVILGTGLLFADSLARAIEPLRQIEGLDIEVRAIENKTFGKVTTVAGLLTGRCFRHAVQPGEADLLIVPPTTLRYGTELMIDDTSLGELRRELKMDVRAGGATLGELARVVLEGAQSSGHQFGMSAHAVKDSGRDDVAPSASRAQGGAAPEESLEEDVAESGMHGRGQA | failed
MTKIIPVASGKGGVGKTSFVANVGYKLSSLGKTVILVDLDLGGSNLHTCLGVKNKGVGIGSFINKKSKSFSDLVCKTSYDKLYLIPGDALYTGTANLPFSIKKKIIESIQKDLIADFIFLDLGSGTSYNTIDFYLASYSGVIVTIPETPSILNAYSFLKNALYRLLYLGFPQKSPERDYIGNFFKDKIEGTNLGFKDLVVGIELISLSSSLKVKRMMNNFYPRVVLNRIETSEEIAMCENLINVVKNNINIPIEFIGFVPFAKSFREAINNRVPFIDFEKNSKLNKYFEFIAGNLIKSPIEGSPYIYDDIYDMIKDQSRFIRKLEHHHHHH | not failed
MSESPTAGRASLAPLREFITGLSALLDEQPGEARILREGGALLARLVARDDWLPDAFAQPHPEYYQQMLLHCDSAERFSIVSFVWGPGQRTPIHDHTVWGLIGMLRGAEYSQPFVLDGSGRPVLHGEPTRLEPGHVEAVSPTVGDIHRVHNAYDDRVSISIHVYGANIGGVRRSVYTEAGERKPFISGYSNPYLPNPWDRSKDSAAS | not failed
MQITIKVLKGKDCTIEVAPTSTILEVKHQIEAELQISATNQKLLLLGRPLNNEQTIASYPNIKEGTKLNLVVIKP | failed
MRGKILIFLHAHLPYVHHPEYDHFLEERWLFEAITETYIPLLMMFDEIEDFRLTMSITPPLMEMLSSRDLQEKYERHMEKLIELANKEVERTKKEHPLKHKMAKFYREHFEKILNVFRSYDGNILEGFKKYQETGKLEIVTCNATHAFLPLYQMYPEVVNAQITVGVKNYAKHMTLHPRGIWLAECGYYQGLDLYLAQNNVEYFFVDSHAFWFADEQPRYGVYRPIMTPSGVFAFARDPESSEQVWSAAVGYPGDPRYREFYRDIGFDREMEYIKDYIDPSGVRINTGIKYHRITSKSLDASQKEYYDIDLAMEAVEEHARDFLHKKESQARRLMDIMGVEPVIVAPFDAELFGHWWFEGVFFLKRFFELVNESKDLKLVTASEVIDTLEEVQIATPADSSWGAGGYYETWLNGTNDWIYRHLHEMIERMIDLSKKYYNSSDPLVERVLNQMLRELFLAQSSDWAFIMTTRTSVQYAENRTKLHIKRFLNLYDQLVSGRIDEEMLRYYEWTDAIFPEINFRVMARDVI | not failed
TKIKSVRTRVWNWTGPTVPPQGNFCTNASDALWIQGDAMASFRFHQWLTCEVETEDGTIGIGNAALAPNVVKQAIDEWYAPLVIGEDPFDYAYLWEKMYRRTHAWGRKGIGMTAISAIDIAIWDLMGKLVGKPVFKLLGGRTKEKIPVYYSKLYADSIPAMQAEAEEAQKHGYQGYKTRFGYGPKDGPAGMRENLKRVEALREVLGYDVDLMLECYMGWNLDYTKRMLPKLERFEPRWLEEPVIADDVAGYAELNAMGIVPISGGEHEFSVMGCAELINRKAVSVLQYDTNRVGGITAAQKINAIAEAAQIIVIPHAGQMHNYHLTMANMNCPISEYFPVFDVEVGNELFYYIFDGDPEAVDGYLQLDDDTPGLGITISDAHLKHFEITE | not failed
